Test results published in patent US7468258.

Molecular target: T1, recombinant His-tagged VWF73 peptide substrate labeled with two fluoresceins
T1 chain: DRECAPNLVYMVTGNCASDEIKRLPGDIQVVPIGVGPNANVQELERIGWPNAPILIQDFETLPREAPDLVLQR

B1: ADAMTS13 (A Disintegrin-like And Metalloprotease with ThromboSpondin type 1 motif) (protein)
chain: AAGGILHLELLVAVGPDVFQAHQEDTERYVLTNLNIGAELLRDPSLGAQFRVHLVKMVILTEPEGAPNITANLTSSLLSVCGWSQTINPEDDTDPGHADLVLYITRFDLELPDGNRQVRGVTQLGGACSPTWSCLITEDTGFDLGVTIAHEIGHSFGLEHDGAPGSGCGPSGHVMASDGAAPRAGLAWSPCSRRQLLSLLSAGRARCVWDPPRPQPGSAGHPPDAQPGLYYSANEQCRVAFGPKAVACTFAREHLDMCQALSCHTDPLDQSSCSRLLVPLLDGTECGVEKWCSKGRCRSLVELTPIAAVHGRWSSWGPRSPCSRSCGGGVVTRRRQCNNPRPAFGGRACVGADLQAEMCNTQACEKTQLEFMSQQCARTDGQPLRSSPGGASFYHWGAAVPHSQGDALCRHMCRAIGESFIMKRGDSFLDGTRCMPSGPREDGTLSLCVSGSCRTFGCDGRMDSQQVWDRCQVCGGDNSTCSPRKGSFTAGRAREYVTFLTVTPNLTSVYIANHRPLFTHLAVRIGGRYVVAGKMSISPNTTYPSLLEDGRVEYRVALTEDRLPRLEEIRIWGPLQEDADIQVYRRYGEEYGNLTRPDITFTYFQPKPRQAWVWAAVRGPCSVSCGAGLRWVNYSCLDQARKELVETVQCQGSQQPPAWPEACVLEPCPPYWAVGDFGPCSASCGGGLRERPVRCVEAQGSLLKTLPPARCRAGAQQPAVALETCNPQPCPARWEVSEPSSCTSAGGAGLALENETCVPGADGLEAPVTEGPGSVDEKLPAPEPCVGMSCPPGWGHLDATSAGEKAPSPWGSIRTGAQAAHVWTPAAGSCSVSCGRGLMELRFLCMDSALRVPVQEELCGLASKPGSRREVCQAVPCPARWQYKLAACSVSCGRGVVRRILYCARAHGEDDGEEILLDTQCQGLPRPEPQEACSLEPCPPRWKVMSLGPCSASCGLGTARRSVACVQLDQGQDVEVDEAACAALVRPEASVPCLIADCTYRWHVGTWMECSVSCGDGIQRRRDTCLGPQAQAPVPADFCQHLPKPVTVRGCWAGPCVGQGTPSLVPHEEAAAPGRTTATPAGASLEWSQARGLLFSPAPQPRRLLPGPQENSVQSSACGRQHLEPTGTIDMRGPGQADCAVAIGRPLGEVVTLRVLESSLNCSAGDMLLLWGRLTWRKMCRKLLDMTFSSKTNTLVVRQRCGRPGGGVLLRYGSQLAPETFYRECDMQLFGPWGEIVSPSLSPATSNAGGCRLFINVAPHARIAIHALATNMGAGTEGANASYILIRDTHSLRTTAFHGQQVLYWESESSQAEMEFSEGFLKAQASLRGQYWTLQSWVPEMQDPQSWKGKEGT
fluorescence of the recombinant peptide during incubation (FRET self-quenching cleavage assay, 96 well plate, fluorometer): With normal pooled plasma (PNP), there is steady increase of fluorescence over time
